The source of these data is patent US20110212084A1 (AstraZeneca / MedImmune, published 2011).

In general, IC50 refers to the point on the concentration scale where inhibition reaches its midpoint.

Assay [1] has as its target T1, human IgEλ (U266 derived) (human, UniProt P01854 1-546). The assay is described as follows: cell-based or functional assay.
The target of assay [2] is T2, cynomolgus IgE (recombinant chimaeric D12 variable region / cynomolgus IgE constant region) (cynomolgus monkey (constant region)). The assay is described as follows: cell-based or functional assay.
For assay [3], the target named is T3, human IgE (source not stated for the assay) (human, UniProt P01854-1 1-428).
T3 construct: also called purified human IgE; IgE (Calbiochem or U266-derived)
The assay is described as follows: SPR, BIAcore 2000; IgE amine-coupled to CM5 chip, IgG as analyte, bivalent analyte model; geomean. As to the method:
(§1) The binding affinity of purified IgG samples of a representative number of clones to human and cynomolgus IgE was determined by surface plasmon resonance using BIAcore 2000 biosensor (BIAcore AB) essentially as described by Karlsson et al 1991; Journal of Immunological Methods 145 (1-2) 229-240. In brief, purified human or cynomolgus IgE was covalently coupled to the surface of a CM5 sensor chip (BIAcore) using standard amine coupling reagents according to the manufacturer's instructions to provide a surface density of 100 RU. IgG samples prepared in HBS-EP buffer (BIAcore (AB), at a range of concentrations, between 250 nM and 15.6 nM were passed over the sensor chip surface. The surface was regenerated using 10 mM Glycine, pH 1.75 between each injection of antibody. The resulting sensorgrams were evaluated using BIA evaluation 3.1 software and fitted to a bivalent analyte model, to provide relative binding data.

Assay [4] deals with T4, human IgEλ (U266 derived) (human, UniProt P01854 1-546).
T4 construct: mature; full-length IgE purified from U266 cells (Ikeyama et al. 1986); labelled with europium cryptate in the HTRF assays; also called human IgE (U266-derived)
Nature of the assay: HTRF receptor-ligand competition, scFv titrated; Eu-cryptate human IgE (U266) binding to human FcεRI-Fc; geomean. As to the method: (§2) Purified scFv were tested in a receptor-ligand binding HTRF® (Homogeneous Time-Resolved Fluorescence) assay format for inhibition of either human IgE (U266-derived [Ikeyama et. al. 1986. Molecular Immunology 23 (2); p159-167]) or cyno IgE (recombinant, see materials and methods) labelled with europium cryptate (CIS bio International 62EUSPEA), binding to human FcεR1-Fc (in house NS0 cell produced). Example scFv potency data is included in Table 5a
(§3) Purified scFv were tested in a receptor-ligand binding HTRF® (Homogeneous Time-Resolved Fluorescence) assay format for inhibition of either human IgE (U266-derived [Ikeyama et. al. 1986. Molecular Immunology 23 (2); p159-167]) or cyno IgE (recombinant, see materials and methods) labelled with europium cryptate (CIS bio International 62EUSPEA), binding to human FcεR1-Fc (in house NS0 cell produced).
In general terms: In TR-FRET formats the signal depends on donor and acceptor labels being close together.

In assay [5] the target is T2, cynomolgus IgE (recombinant chimaeric …). The assay is described as follows: HTRF receptor-ligand competition, scFv titrated; Eu-cryptate cynomolgus IgE binding to human FcεRI-Fc; geomean. As to the method: as §2, §3
Assay [6] addresses T1, human IgEλ (U266 derived). Nature of the assay: HTRF receptor-ligand competition, scFv titrated; Eu-cryptate human IgE (U266) binding to human FcεRI-Fc; geomean. As to the method: as §2, §3
Assay [7] deals with T2, cynomolgus IgE (recombinant chimaeric …). The assay is described as follows: SPR, BIAcore 2000; cynomolgus IgE amine-coupled to CM5 chip, IgG as analyte, bivalent analyte model; geomean. As to the method: as §1

Substitutions are numbered along the chain they refer to.

T3 sequence (P01854 other isoform, or with tags, fused parts or gaps): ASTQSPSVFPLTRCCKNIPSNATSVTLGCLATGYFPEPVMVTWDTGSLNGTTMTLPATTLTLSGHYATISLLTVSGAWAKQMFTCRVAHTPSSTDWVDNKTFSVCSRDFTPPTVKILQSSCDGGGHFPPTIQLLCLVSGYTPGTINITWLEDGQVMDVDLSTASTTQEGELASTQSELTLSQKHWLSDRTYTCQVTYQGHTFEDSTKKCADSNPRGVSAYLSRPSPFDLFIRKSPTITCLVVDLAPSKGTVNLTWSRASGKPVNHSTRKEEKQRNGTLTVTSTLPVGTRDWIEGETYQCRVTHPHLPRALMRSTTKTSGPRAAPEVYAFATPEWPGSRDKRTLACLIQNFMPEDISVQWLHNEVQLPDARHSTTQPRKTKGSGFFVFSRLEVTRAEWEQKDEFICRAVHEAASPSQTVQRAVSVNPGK
T2 sequence (heavy, as listed by the source limits assumed, chain 1 of 2): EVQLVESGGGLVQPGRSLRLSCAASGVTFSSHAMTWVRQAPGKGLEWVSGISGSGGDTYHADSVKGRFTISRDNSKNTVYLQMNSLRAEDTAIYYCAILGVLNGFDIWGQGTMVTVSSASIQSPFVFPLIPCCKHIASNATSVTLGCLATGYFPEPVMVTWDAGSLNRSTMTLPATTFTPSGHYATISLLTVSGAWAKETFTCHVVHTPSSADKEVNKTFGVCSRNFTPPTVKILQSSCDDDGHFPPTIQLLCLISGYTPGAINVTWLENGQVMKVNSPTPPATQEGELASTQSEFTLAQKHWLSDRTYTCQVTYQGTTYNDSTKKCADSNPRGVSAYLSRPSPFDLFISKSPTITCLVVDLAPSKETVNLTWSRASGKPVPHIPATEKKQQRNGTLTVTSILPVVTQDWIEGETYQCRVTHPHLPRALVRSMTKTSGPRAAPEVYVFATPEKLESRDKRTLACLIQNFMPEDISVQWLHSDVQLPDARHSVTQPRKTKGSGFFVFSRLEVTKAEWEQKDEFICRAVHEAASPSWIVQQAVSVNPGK
T2 sequence (light, as listed by the source limits assumed, chain 2 of 2): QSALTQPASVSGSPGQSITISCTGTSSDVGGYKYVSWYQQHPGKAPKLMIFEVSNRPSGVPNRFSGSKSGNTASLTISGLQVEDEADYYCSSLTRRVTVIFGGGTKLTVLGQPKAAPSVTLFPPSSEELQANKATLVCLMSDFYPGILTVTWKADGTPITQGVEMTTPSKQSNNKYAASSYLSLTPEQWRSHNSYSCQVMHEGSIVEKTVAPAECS

B1: Antibody 26 (IgG) (antibody, V domains shown)
VH: EVQLLESGGGLVQPGGSLRLSCAASGLTFSGYAMSWVRQAPGKGLEWVSAISGSGGRTYYADSVKGRFTISRDNSKNMLYLQMNSLRAEDTAVYYCARHIAVAGTRGFDYWGRGTLVTVSS
VL: SFVLTQPPSVSVSPGQTASITCSGDKLGDTYASWYRQRSGQSPVLVIYQDDKRPSGIPERFSGSNSGNTATLTIGGTHTMDEADYYCLAWDTRTSGAVFGGGTKLTVL
As for B1, the “RBL-ER51 calcium signalling IC50 (nM) Geomean, human IgE 25 ng/ml” value in assay [1] was found to be 1.2 nM. In addition, the “RBL-ER51 calcium signalling IC50 (nM) Geomean, cynomolgus IgE 100 ng/ml” value in assay [2] came out at 17 nM.

B2: Antibody 34 (IgG) (antibody, V domains shown)
VH: EVQLLESGGGLVQPGGSLRLSCAAPGFTLSSYAMSWVRQAPGKGLEWVSAISGGSGGRTYYADSVKGRFTISRDNSKNTLYLQMNSLRAEDTAVYYCARHIAVAGTRGFDYWGRGTLVTVSS
VL: B1 VL with F2Y, V12A, S55P, G75R, T106S
Take B2: the “RBL-ER51 calcium signalling IC50 (nM) Geomean, human IgE 25 ng/ml” value in assay [1] was found to be 0.223 nM. Besides, in assay [2], the “RBL-ER51 calcium signalling IC50 (nM) Geomean, cynomolgus IgE 100 ng/ml” value amounted to 22 nM. The molecule further had a Kd in assay [3] of 26 nM.

B3: Antibody 9 (IgG) (antibody, V domains shown)
VH: B2 VH with P25S, L29F
VL: B1 VL with T5S, G75S
Regarding B3, the “RBL-ER51 calcium signalling IC50 (nM) Geomean, human IgE 25 ng/ml” value in assay [1] was determined as 0.286 nM. In addition, the “RBL-ER51 calcium signalling IC50 (nM) Geomean, cynomolgus IgE 100 ng/ml” value in assay [2] was found to be 4.5 nM. Also, the Kd in assay [3] came to 79 nM.

B4: Antibody 10 (IgG) (antibody, V domains shown)
VH: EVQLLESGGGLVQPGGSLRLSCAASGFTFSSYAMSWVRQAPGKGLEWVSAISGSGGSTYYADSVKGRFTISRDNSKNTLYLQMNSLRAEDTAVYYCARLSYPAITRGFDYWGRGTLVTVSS
VL: B1 VL with F2Y, T30K, G75S
On to B4, for which the “RBL-ER51 calcium signalling IC50 (nM) Geomean, human IgE 25 ng/ml” value in assay [1] came to 1.5 nM. The molecule also came in with a Kd in assay [3] of 1.3 nM.

B5: Antibody 10 (scFv) (scFv, V domains shown)
VH: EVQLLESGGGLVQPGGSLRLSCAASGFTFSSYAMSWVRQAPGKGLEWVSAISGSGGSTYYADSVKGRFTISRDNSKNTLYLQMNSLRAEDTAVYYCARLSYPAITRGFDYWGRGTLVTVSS
VL: B1 VL with F2Y, T30K, G75S
notes: purified scFv
In assay [4], B5 gave an IC50 of 10 nM.

B6: Antibody 15 (scFv) (scFv, V domains shown)
VH: B2 VH with L29F
VL: B1 VL with F2Y, K52R, G75S
notes: purified scFv
As to B6, the half-maximal inhibitory concentration (IC50) in assay [5] stood at 135 nM; in assay [4] it was 4 nM.

B7: Antibody 24 (scFv) (scFv, V domains shown)
VH: B2 VH with L29F, S121P
VL: B1 VL with G75S
notes: purified scFv
For B7, the figures for the IC50 in assay [5] and in assay [6] were 196 nM and 4 nM, respectively.

B8: Antibody 15 (IgG) (antibody, V domains shown)
VH: B2 VH with L29F
VL: B1 VL with F2Y, K52R, G75S
B8: the “RBL-ER51 calcium signalling IC50 (nM) Geomean, human IgE 25 ng/ml” value in assay [1] was 0.341 nM. The “RBL-ER51 calcium signalling IC50 (nM) Geomean, cynomolgus IgE 100 ng/ml” value in assay [2] is 5.4 nM. For the same molecule, the Kd in assay [7] amounted to 7 nM; in assay [3] it was 0.9 nM.

B9: Antibody 7 (scFv) (scFv, V domains shown)
VH: B1 VH with L27F, G31S, S54G, M78T
VL: B1 VL with F2Y, V12A, G75S
notes: purified scFv
B9: the values for the IC50 in assay [5] and in assay [6] were 569 nM and 8 nM, respectively.

B10: Antibody 23 (scFv) (scFv, V domains shown)
VH: B2 VH with P25S, G26E, L29F, S30G
VL: B1 VL with F2Y, T69A, G75S
notes: purified scFv
For the molecule B10, the 50% inhibitory concentration (IC50) in assay [5] is 331 nM; in assay [6], 7 nM.

B11: Antibody 9 (scFv) (scFv, V domains shown)
VH: B2 VH with P25S, L29F
VL: B1 VL with T5S, G75S
notes: purified scFv
For the molecule B11, the IC50 in assay [5] was 138 nM; in assay [4] it was 6 nM.

B12: Antibody 3 (scFv) (scFv, V domains shown)
VH: B1 VH with L27F, G31S, M78T
VL: B1 VL with F2Y, N68D, G75S
notes: purified scFv
Regarding B12, the figures for the IC50 in assay [5] and in assay [6] were 237 nM and 5 nM, respectively.

B13: Antibody 34 (scFv) (scFv, V domains shown)
VH: B2 VH
VL: B1 VL with F2Y, V12A, S55P, G75R, T106S
notes: purified scFv
For the molecule B13, the IC50 came out at 500 nM in assay [5] and 3 nM in assay [4].

B14: Antibody 25 (scFv) (scFv, V domains shown)
VH: B2 VH with L29F, V120I
VL: B1 VL with G75S
notes: purified scFv
Consider B14, for which the IC50 in assay [5] is 188 nM; in assay [6] it was 6 nM.

B15: Antibody 26 (scFv) (scFv, V domains shown)
VH: B1 VH
VL: B1 VL
notes: purified scFv
For B15, the IC50 in assay [5] is 359 nM; in assay [6], 8 nM.

B16: Antibody 27 (scFv) (scFv, V domains shown)
VH: B1 VH with L27F, G31S, M78T, H99S, I100T, A101Y, V102F, G104S
VL: B1 VL with F2Y, G75S
notes: purified scFv
Turning to B16, the half-inhibitory concentration (IC50) in assay [5] came to 379 nM; in assay [6] it was 2 nM.

B17: Antibody 2 (scFv) (scFv, V domains shown)
VH: B1 VH with L27F, G31S, M78T
VL: B1 VL with F2Y, K52R, G75S
notes: purified scFv
Consider B17, for which the half-inhibitory concentration (IC50) amounted to 398 nM in assay [5] and 7 nM in assay [6].

B18: Antibody 36 (scFv) (scFv, V domains shown)
VH: B1 VH with L27F, G31S, M78T
VL: B1 VL with V3M, T5S, G75S
notes: purified scFv
As for B18, the IC50 in assay [5] came out at 407 nM; in assay [4], 8 nM.

B19: Antibody 4 (scFv) (scFv, V domains shown)
VH: B1 VH with L27F, G31S, M78T, L116P
VL: B1 VL with G75S
notes: purified scFv
As to B19, the half-maximal inhibitory concentration (IC50) in assay [5] was determined as 600 nM; in assay [6], 5.4 nM.

B20: Antibody 33 (scFv) (scFv, V domains shown)
VH: B2 VH with R19S, L29F, R73K
VL: B1 VL with F2Y, Q41L, V44A, G75S
notes: purified scFv
B20: the figures for the 50% inhibitory concentration (IC50) in assay [5] and in assay [4] were 533 nM and 14 nM, respectively.

B21: Antibody 19 (scFv) (scFv, V domains shown)
VH: B2 VH with P25S, L29F, I51V
VL: B1 VL with G75S, G76R
notes: purified scFv
Consider B21, for which the IC50 in assay [5] was found to be 197 nM; in assay [6] it was 9 nM.

B22: Antibody 12 (scFv) (scFv, V domains shown)
VH: B1 VH with L27F, G31S, M78T
VL: B1 VL with V3M, T5S, G75S
notes: purified scFv
Take B22: the IC50 turned out to be 473 nM in assay [5] and 8 nM in assay [4].

B23: Antibody 5 (scFv) (scFv, V domains shown)
VH: B1 VH with L27F, G31S, M78T
VL: B1 VL with F2Y, K52R, G75S, V107A
notes: purified scFv
B23: the IC50 in assay [5] turned out to be 356 nM; in assay [6], 6 nM.
